Biological target: T1, Abp1 SH3 (ABP1_YEAST), P15891
T1 chain: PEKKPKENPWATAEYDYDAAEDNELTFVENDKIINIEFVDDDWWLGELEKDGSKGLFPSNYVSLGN
Experiment: SPOT array

Binder FSEKPEETPNPLKP [YKL077W 64-77] has a normalised SPOT signal, Boehringer light units (BLU); mean over the file's lines of this peptide of 170.

FSGSLKLPNSPRP [YGL135W 49-61] showed a normalised SPOT signal, Boehringer light units (BLU); mean over the file's lines of this peptide of 478.

With FSGVTNQPSPIRP [YER129W 662-674] the normalised SPOT signal, Boehringer light units (BLU); mean over the file's lines of this peptide was 67.2.

FSHTGLTSFTPERP [YOL138C 597-610] showed a normalised SPOT signal, Boehringer light units (BLU); mean over the file's lines of this peptide of 92.

Work on FSLMFNTSRLPGKP [YML042W 214-227] yielded a normalised SPOT signal, Boehringer light units (BLU); mean over the file's lines of this peptide of 2180.

Work on FSVLIYESLDPDRP [YIR032C 164-177] yielded a normalised SPOT signal, Boehringer light units (BLU); mean over the file's lines of this peptide of 143.

FTDNSLLPSLIKP [YOR317W 178-190] gave a normalised SPOT signal, Boehringer light units (BLU); mean over the file's lines of this peptide of 217.

Binder FTNLQAKPLVGKP [YAR002W 429-441] has a normalised SPOT signal, Boehringer light units (BLU); mean over the file's lines of this peptide of 4290.

FTYAYVSPTKLKP [YGL140C 277-289] gave a normalised SPOT signal, Boehringer light units (BLU); mean over the file's lines of this peptide of 170.

Work on FVFFKSLPDLPKP [YML104C 41-53] yielded a normalised SPOT signal, Boehringer light units (BLU); mean over the file's lines of this peptide of 196.

FVYPFIRRYTPLKP [YKR093W 407-420] showed a normalised SPOT signal, Boehringer light units (BLU); mean over the file's lines of this peptide of 125.

Work on FWKSLYPELTPYKP [YKR051W 189-202] yielded a normalised SPOT signal, Boehringer light units (BLU); mean over the file's lines of this peptide of 97.4.

With FYILDKFPLEIRP [YLL018C 442-454] the normalised SPOT signal, Boehringer light units (BLU); mean over the file's lines of this peptide was 20.

Work on FYYWLGVPSFQRP [YHR171W 136-148] yielded a normalised SPOT signal, Boehringer light units (BLU); mean over the file's lines of this peptide of 97.

Work on GAGILAMPYAFKP [YER119C 18-30] yielded a normalised SPOT signal, Boehringer light units (BLU); mean over the file's lines of this peptide of 62.2.

For GAGVLAMPFAFKP [YBL089W 68-80], the normalised SPOT signal, Boehringer light units (BLU); mean over the file's lines of this peptide was 79.6.

For GALLDEAPEHPRP [YNL314W 80-92], the normalised SPOT signal, Boehringer light units (BLU); mean over the file's lines of this peptide was 82.3.

In the case of GASTIPASNNPSKP [YIL130W 103-116], the normalised SPOT signal, Boehringer light units (BLU); mean over the file's lines of this peptide is reported as 90.9.

Binder GATFAVKEFRPRKP [YOR267C 238-251] has a normalised SPOT signal, Boehringer light units (BLU); mean over the file's lines of this peptide of 1130.

Work on GATTLKPATLPAKP [YIL038C 384-397] yielded a normalised SPOT signal, Boehringer light units (BLU); mean over the file's lines of this peptide of 160.

GSNATADVSPPKKP [YDL118W 75-88] showed a normalised SPOT signal, Boehringer light units (BLU); mean over the file's lines of this peptide of 67.3.

GDAFQDVEGKPLRP [YOR229W 116-129] was tested, and the normalised SPOT signal, Boehringer light units (BLU); mean over the file's lines of this peptide was 51.6.

Binder GDEGNRNITAPPRP [YHR031C 65-78] has a normalised SPOT signal, Boehringer light units (BLU); mean over the file's lines of this peptide of 77.6.

Binder GDELSQGPNVLKP [YDR305C 168-180] has a normalised SPOT signal, Boehringer light units (BLU); mean over the file's lines of this peptide of 67.5.

With GDHLQNDPLSLRP [YOR316C 398-410] the normalised SPOT signal, Boehringer light units (BLU); mean over the file's lines of this peptide was 78.1.

In the case of GDKYQVDPKTSKP [YLR454W 1837-1849], the normalised SPOT signal, Boehringer light units (BLU); mean over the file's lines of this peptide is reported as 51.2.

Binder GDLGKEFGTTPEKP [YPL231W 188-201] has a normalised SPOT signal, Boehringer light units (BLU); mean over the file's lines of this peptide of 121.

In the case of GDTVYIVHWEPSKP [YIL154C 237-250], the normalised SPOT signal, Boehringer light units (BLU); mean over the file's lines of this peptide is reported as 48.

With GEEHEPVVEIPKRP [YDR342C 45-58] the normalised SPOT signal, Boehringer light units (BLU); mean over the file's lines of this peptide was 70.9.

Work on GEGHSDQPQNPKP [YML118W 352-364] yielded a normalised SPOT signal, Boehringer light units (BLU); mean over the file's lines of this peptide of 13.4.

For GGIIPTVNGKPVRP [YBR012W-A 198-211], the normalised SPOT signal, Boehringer light units (BLU); mean over the file's lines of this peptide was 430.

Binder GGKYQGFGSTPAKP [YDL226C 208-221] has a normalised SPOT signal, Boehringer light units (BLU); mean over the file's lines of this peptide of 56.7.

Work on GIFNALPPPNTKP [YDL046W 25-37] yielded a normalised SPOT signal, Boehringer light units (BLU); mean over the file's lines of this peptide of 136.

GIKTRKFVFNPPKP [YOR065W 294-307] showed a normalised SPOT signal, Boehringer light units (BLU); mean over the file's lines of this peptide of 57.2.

In the case of GINMKKGFINPRKP [YLL021W 560-573], the normalised SPOT signal, Boehringer light units (BLU); mean over the file's lines of this peptide is reported as 210.

GISHTRMPTESRP [YKL165C 94-106] gave a normalised SPOT signal, Boehringer light units (BLU); mean over the file's lines of this peptide of 80.

GKSIYFSDIVPSKP [YJL186W 204-217] was tested, and the normalised SPOT signal, Boehringer light units (BLU); mean over the file's lines of this peptide was 108.

Binder GKDIPFFPSSEKP [YDR443C 544-556] has a normalised SPOT signal, Boehringer light units (BLU); mean over the file's lines of this peptide of 140.

GKDKSRPPRPPPKP [YIL095W 743-756] gave a normalised SPOT signal, Boehringer light units (BLU); mean over the file's lines of this peptide of 41900.

Binder GKIELTSPITSKP [YEL019C 178-190] has a normalised SPOT signal, Boehringer light units (BLU); mean over the file's lines of this peptide of 73.6.

For GKLLKSYPTSARP [YGR238C 700-712], the normalised SPOT signal, Boehringer light units (BLU); mean over the file's lines of this peptide was 204.

In the case of GKLVDLTPASMKP [YGR196C 563-575], the normalised SPOT signal, Boehringer light units (BLU); mean over the file's lines of this peptide is reported as 41.6.

With GKNKMHEPKNGRP [YOR006C 4-16] the normalised SPOT signal, Boehringer light units (BLU); mean over the file's lines of this peptide was 224.

GKSRRKTNTKPSRP [YPL137C 17-30] gave a normalised SPOT signal, Boehringer light units (BLU); mean over the file's lines of this peptide of 65.2.

Work on GLKYAQSPKFSKP [YKL212W 605-617] yielded a normalised SPOT signal, Boehringer light units (BLU); mean over the file's lines of this peptide of 131.

GLNDSTEPVLHKP [YIL044C 131-143] gave a normalised SPOT signal, Boehringer light units (BLU); mean over the file's lines of this peptide of 135.

GLQGDQFPRQQRP [YDR240C 296-308] gave a normalised SPOT signal, Boehringer light units (BLU); mean over the file's lines of this peptide of 124.

GMTKTPETSPPKRP [YDR200C 28-41] was tested, and the normalised SPOT signal, Boehringer light units (BLU); mean over the file's lines of this peptide was 169.

With GNGMYKIPSNTKP [YPL116W 648-660] the normalised SPOT signal, Boehringer light units (BLU); mean over the file's lines of this peptide was 499.

With GNIVEIAPLIPKKP [YDR080W 593-606] the normalised SPOT signal, Boehringer light units (BLU); mean over the file's lines of this peptide was 318.

GNPLYTTPKTPPRP [YKR028W 953-966] was tested, and the normalised SPOT signal, Boehringer light units (BLU); mean over the file's lines of this peptide was 292.

GPAPPPPPRASRP [YOR181W 384-396] was tested, and the normalised SPOT signal, Boehringer light units (BLU); mean over the file's lines of this peptide was 8770.

GPQKEEAPKKHRP [YMR076C 1094-1106] was tested, and the normalised SPOT signal, Boehringer light units (BLU); mean over the file's lines of this peptide was 86.6.

With GQFSPENPNEFKP [YPR160W 817-829] the normalised SPOT signal, Boehringer light units (BLU); mean over the file's lines of this peptide was 60.8.

Work on GQLANSSSRAPAKP [YDL222C 69-82] yielded a normalised SPOT signal, Boehringer light units (BLU); mean over the file's lines of this peptide of 127.

With GRAPRETPEWRRP [YGL034C 16-28] the normalised SPOT signal, Boehringer light units (BLU); mean over the file's lines of this peptide was 2720.

In the case of GRLTPGLPRSYKP [YPR111W 45-57], the normalised SPOT signal, Boehringer light units (BLU); mean over the file's lines of this peptide is reported as 866.

GSKSGPPPRPKKP [YNL138W 349-361] showed a normalised SPOT signal, Boehringer light units (BLU); mean over the file's lines of this peptide of 25200.

GSSELEEPIAIRP [YHR020W 279-291] gave a normalised SPOT signal, Boehringer light units (BLU); mean over the file's lines of this peptide of 107.

Source: article PMC314469, “Protein Interaction Networks by Proteome Peptide Scanning” (PLoS Biology, 2004)
